Experimental data as given in patent US20130295106A1 (ONCOMED PHARMACEUTICALS, published 2013).

Key:
Test in all cases: flow cytometry, HEK293 cells transiently co-transfected with FZD expression vector and GFP
[1] = biological target: T1, human FZD3 expressed on transfected HEK293 cells (human, UniProt Q9NPG1 23-666)
T1 sequence: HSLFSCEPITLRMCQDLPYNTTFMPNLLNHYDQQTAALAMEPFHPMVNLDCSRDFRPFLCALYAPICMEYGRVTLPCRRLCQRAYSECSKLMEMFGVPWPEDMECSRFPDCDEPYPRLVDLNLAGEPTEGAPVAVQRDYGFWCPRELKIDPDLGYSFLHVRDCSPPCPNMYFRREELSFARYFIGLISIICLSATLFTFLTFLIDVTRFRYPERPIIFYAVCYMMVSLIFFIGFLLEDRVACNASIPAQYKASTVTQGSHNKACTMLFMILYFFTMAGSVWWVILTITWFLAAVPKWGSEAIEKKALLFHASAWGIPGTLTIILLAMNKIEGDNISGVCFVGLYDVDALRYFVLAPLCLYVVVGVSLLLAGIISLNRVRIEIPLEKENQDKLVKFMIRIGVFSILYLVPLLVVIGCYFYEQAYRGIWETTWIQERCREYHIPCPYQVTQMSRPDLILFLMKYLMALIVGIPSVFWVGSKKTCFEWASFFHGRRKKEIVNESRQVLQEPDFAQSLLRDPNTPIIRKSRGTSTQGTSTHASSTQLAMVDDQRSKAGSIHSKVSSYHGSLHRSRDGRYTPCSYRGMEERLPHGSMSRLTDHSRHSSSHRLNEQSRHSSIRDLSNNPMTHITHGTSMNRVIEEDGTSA
Procedure: (§1) To measure antibody binding to FZD by flow cytometry HEK293 cells were co-transfected with FZD expression vectors and the transfection marker GFP. Twenty-four to forty-eight hours post-transfection, cells were collected in suspension and incubated on ice with anti-FZD antibodies (10 μg/ml unless otherwise indicated) or control IgG to detect background antibody binding. The cells were washed and primary antibodies detected with Fc domain-specific secondary antibodies conjugated to a fluorescent chromophore (e.g. phycoerythrin conjugated anti-human IgG). Labeled cells were then analyzed by flow cytometry to identify anti-FZD antibodies that specifically recognize cell surface expression of FZD protein. Monoclonal antibodies 18R5 and 18R8 recognized FZD on transfected cells. As shown in FIG. 1 and FIG. 2, both 18R8 and 18R5 bind to multiple FZD including FZD1, FZD2, FZD5, FZD7, and FZD8. To examine the relative ability of 18R8 and 18R5 to bind to each FZD protein, titration analysis was conducted wherein the amount of antibody in the binding reaction was varied (FIG. 2).

[2] = biological target: T2, human FZD6 expressed on transfected HEK293 cells (human, UniProt O60353 19-706)
T2 sequence: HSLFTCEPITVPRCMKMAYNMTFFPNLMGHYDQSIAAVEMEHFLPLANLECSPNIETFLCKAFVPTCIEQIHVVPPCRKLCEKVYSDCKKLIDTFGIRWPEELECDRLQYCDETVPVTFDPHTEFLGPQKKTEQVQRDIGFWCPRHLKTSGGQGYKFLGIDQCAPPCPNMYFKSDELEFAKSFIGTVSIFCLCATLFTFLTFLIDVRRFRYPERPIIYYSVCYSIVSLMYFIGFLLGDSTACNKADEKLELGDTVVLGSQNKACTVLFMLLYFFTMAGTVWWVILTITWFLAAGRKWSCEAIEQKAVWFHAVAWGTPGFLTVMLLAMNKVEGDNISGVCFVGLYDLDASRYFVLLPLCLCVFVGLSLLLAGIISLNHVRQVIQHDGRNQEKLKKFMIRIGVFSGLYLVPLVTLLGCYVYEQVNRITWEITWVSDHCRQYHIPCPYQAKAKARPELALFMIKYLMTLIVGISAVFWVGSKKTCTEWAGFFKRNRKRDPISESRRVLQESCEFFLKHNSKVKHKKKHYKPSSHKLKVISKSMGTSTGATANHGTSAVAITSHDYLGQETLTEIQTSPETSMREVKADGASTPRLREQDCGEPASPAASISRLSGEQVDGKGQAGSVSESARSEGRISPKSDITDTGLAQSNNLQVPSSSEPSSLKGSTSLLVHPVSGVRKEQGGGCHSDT
Procedure: as §1

[3] = biological target: T3, human FZD10 expressed on transfected HEK293 cells (human, UniProt Q9ULW2 21-581)
T3 sequence: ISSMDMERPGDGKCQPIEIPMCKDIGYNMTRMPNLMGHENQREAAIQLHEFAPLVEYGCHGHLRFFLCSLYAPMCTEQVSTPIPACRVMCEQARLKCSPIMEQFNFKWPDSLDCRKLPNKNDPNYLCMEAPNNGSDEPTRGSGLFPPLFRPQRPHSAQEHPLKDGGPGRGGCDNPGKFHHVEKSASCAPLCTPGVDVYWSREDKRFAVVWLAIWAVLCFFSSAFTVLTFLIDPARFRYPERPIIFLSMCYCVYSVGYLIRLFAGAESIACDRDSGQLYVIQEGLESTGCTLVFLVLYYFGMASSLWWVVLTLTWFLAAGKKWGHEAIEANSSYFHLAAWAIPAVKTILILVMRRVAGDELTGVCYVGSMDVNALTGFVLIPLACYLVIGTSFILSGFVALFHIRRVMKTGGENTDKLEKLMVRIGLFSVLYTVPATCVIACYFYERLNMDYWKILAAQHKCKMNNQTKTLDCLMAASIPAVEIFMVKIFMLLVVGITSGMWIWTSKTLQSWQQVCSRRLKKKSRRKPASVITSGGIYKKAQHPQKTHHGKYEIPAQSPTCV
Procedure: as §1

binding result [1]: no binding (tested: 10 ug/ml) | binding result [2]: no binding (tested: 10 ug/ml) | binding result [3]: no binding (tested: 10 ug/ml)
B1: 18R8 IgG antibody (human IgG2, lambda) (antibody, V domains shown)
VH: EVQLVESGGGLVQPGGSLRLSCAASGFTFSHYTLSWVRQAPGKGLEWVSVISGDGSYTYYADSVKGRFTISSDNSKNTLYLQMNSLRAEDTAVYYCARNFIKYVFANWGQGTLVTVSS
VL: DIELTQPPSVSVAPGQTARISCSGDKLGKKYASWYQQKPGQAPVLVIYEKDNRPSGIPERFSGSNSGNTATLTISGTQAEDEADYYCSSFAGNSLEVFGGGTKLTVLG
notes: Expressed in CHO cells, protein A purified; also called 18R8 IgG2 antibody; anti-FZD antibody 18R8
